Results as given in paper PMC3589475, “Large-Scale Functional Purification of Recombinant HIV-1 Capsid” (PLoS ONE, 2013).

Key:
[1] = target: HIV-1 capsid (CA) (Human immunodeficiency virus 1) (UniProt O93182); conditions: cited from earlier work
[2] = target: quadruple mutant (A14C/E45C/W184A/M185A) CA monomer (CA 4Mu) (HIV-1 (NL4-3 strain)); test: AUC; sedimentation velocity, cross-linked CA 4Mu hexamer at 4.13, 8.25 and 16.5 µM (as monomers), 50 mM sodium phosphate pH 7.5, 25°C, 45,000 rpm, no reducing agent
[3] = target: wild-type HIV-1 capsid protein (WT CA) (HIV-1 (pLAI.2)) (UniProt P03348); test: AUC; sedimentation velocity, WT CA at 0.94, 1.88, 3.75 and 7.5 µM, 50 mM sodium phosphate pH 7.5, 25°C, 45,000 rpm; monomer to dimer, at high protein concentration

In the case of HIV-1 capsid (CA) (from UniProt O93182), the Kd [1] is given as 14 µM.
With “quadruple mutant (A14C/E45C/W184A/M185A) CA monomer (CA 4Mu) (natural protein)” the percent in hexameric form [2] was 94% and the stoichiometry N [2] was 6.
“wild-type HIV-1 capsid protein (WT CA) (from UniProt P03348 133-363) (natural protein)” showed a stoichiometry N [3] of 2.
